In article PMC11406361, “Several orphan solute carriers functionally identified as organic cation transporters: Substrates specificity compared with known cation transporters” (The Journal of Biological Chemistry, 2024) one finds Km, Vmax and Vmax/Km data, which are given here for nine proteins.

Broadly, the Vmax is the rate approached at saturating substrate.

Common to all, as to experiment: cells, lysate or membranes
Substrate in data set [1]: COC(=O)[C@H]1[C@@H](OC(=O)c2ccccc2)C[C@@H]2CC[C@H]1N2C
The conditions noted are these: pH 7.4.

Substrate in data set [2]: COc1ccc2c3c1O[C@H]1C(=O)CC[C@@]4(O)[C@@H](C2)N(C)CC[C@]314
The conditions noted are these: pH 7.4.

Substrate in data set [3]: c1cnc2cc3c(cc2n1)[C@@H]1CNC[C@H]3C1
The conditions noted are these: other: SLC35E2A, HEK293, net uptake over empty vector cells; pH 7.4.

Substrate in data set [4]: C[N+](C)(C)CCO
The conditions noted are these: pH 7.4.

Substrate in data set [5]: CCCN1CCCC[C@H]1C(=O)Nc1c(C)cccc1C
The following applies: other: SLC35G3, HEK293, net uptake over empty vector cells; pH 7.4.

Substrate in data set [6]: CCCNC(C)C(=O)Nc1c(C)csc1C(=O)OC
The conditions noted are these: other: SLC35G3, HEK293, net uptake over empty vector cells; pH 7.4.

Substrate in data set [7]: CCOC(=O)C1(c2ccccc2)CCN(C)CC1
The conditions noted are these: other: SLC35G3, HEK293, net uptake over empty vector cells; pH 7.4.

Substrate in data set [8]: CNC(C)Cc1ccc2c(c1)OCO2
The conditions noted are these: other: SLC35G3, HEK293, net uptake over empty vector cells; pH 7.4.

Substrate in data set [9]: Clc1cccc(Cl)c1N=C1NCCN1
The following applies: other: SLC35G3, HEK293, net uptake over empty vector cells; pH 7.4.

The mark [10] stands for this setting: other: SLC35F4, HEK293, net uptake over empty vector cells.
Where [11] appears, read: other: SLC35G4, HEK293, net uptake over empty vector cells.
Setting [12] is: other: SLC44A1, HEK293, net uptake over empty vector cells.
Setting [13] is: other: SLC35F2, HEK293, net uptake over empty vector cells.
Setting [14] is: other: SLC35F3, HEK293, net uptake over empty vector cells.
[15] abbreviates: other: SLC35F5, HEK293, net uptake over empty vector cells.
Where [16] appears, read: other: SLC35E4, HEK293, net uptake over empty vector cells.

B1: SLC35E2A (Homo sapiens) (protein)
chain: MSSSVKTPALEELVPGSEEKPKGRSPLSWGSLFGHRSEKIVFAKSDGGTDENVLTVTITETTVIESDLGVWSSRALLYLTLWFFFSFCTLFLNKYILSLLGGEPSMLGAVQMLSTTVIGCVKTLVPCCLYQHKARLSYPPNFLMTMLFVGLMRFATVVLGLVSLKNVAVSFAETVKSSAPIFTVIMSRMILGEYTGRPSDREEREELQLQPGRGAAASDRRSPVPPSERHGVRPHGENLPGDFQVPQALHRVALSMALPCPMLPAS
Consider B1, for which, in data set [1], the Km is given as 165 (±47.7) μM, the Vmax amounted to 0.000683 µmol/min/mg and the Vmax/Km worked out at 4.14 µL/min/mg. Further, in data set [2], the Km is recorded as 92.0 (±31.0) μM, the Vmax was found to be 0.000317 µmol/min/mg and the Vmax/Km was 3.44 µL/min/mg. In [3], the Km is 474 (±190) μM, the Vmax came out at 0.000847 µmol/min/mg and the Vmax/Km worked out at 1.79 µL/min/mg.

B2: SLC35F4 (Homo sapiens) (protein)
chain: MDELLLDLFHKLTSGRQLAAGNGLCGISHKEQEVWKPGHNILVKMRKEDKSLVWLIHSTLARYTQVTNFLGTSRSSVTRCKPGANCPSSHSGISRQLSPLSVTEDSSAPILELQNQGSSGVCGHRVERQNRSADDGTQTHSENSSQENRIKARCLSCTSMVLKGIWGLLIILSVSSSWVGTTQIVKITYKNFYCPFFMTWFSTNWNIMFFPVYYSGHLATAQEKQSPMKKFRECSRIFGEDGLTLKLFLKRTAPFSILWTLTNYLYLLALKKLTATDVSALFCCNKAFVFLLSWIVLKDRFMGVRIVAAIMAITGIVMMAYADNFHADSIIGVAFAVGSASTSALYKVLFKMFLGSANFGEAAHFVSTLGFFNLIFISFTPVILYFTKVEHWSSFAALPWGCLCGMAGLWLAFNILVNVGVVLTYPILISIGTVLSVPGNAAVDLLKQEVIFNVVRLAATIIICIGFLLMLLPEEWDEITLRFINSLKEKKSEEHVDDVTDPSIHLRGRGRANGTVSIPLA
Consider B2, for which, in data set [4] (setting [10]), the Km is on record as 47.4 (±48.1) μM, the Vmax was found to be 6.28e-05 µmol/min/mg and the Vmax/Km is 1.32 µL/min/mg.

B3: SLC35G4 (Homo sapiens) (protein)
chain: MAGSHPYFNLPDSTHPSPPSTPPSLHWHQRCQPSDATNGLLVALLGGGLPAGFVGPLSRMAYQASNLPSLELVICRCLFHLPIALLLKLRGDPLLGPPDIRGRTCFCALLNVLNIGCAYSAVQVVPTGNAATVRKHSSTVCSAILTLCLESQVLSGYDWCGLLGSILGLIIIVGPGLWTLQEGTTGVYTGLGYVQAFLGGLALSLGLLVYRSLHFPSCLPTVAFLSGLVGLLGSVPGLFVLQSPVLPSDLLSWSCVGAVGILTLVSFTCVGYAVTKAHPALVCAVLHSEVVMALILQYFMLHETVAPSDIMGAGVVLGSIAIITARNLICERTGKVEE
B3: in [4] (setting [11]), the Km is given as 13.2 (±7.02) μM, the Vmax stood at 0.000108 µmol/min/mg and the Vmax/Km is 8.15 µL/min/mg.

B4: SLC44A1 (Homo sapiens) (protein)
chain: MGCCSSASSAAQSSKREWKPLEDRSCTDIPWLLLFILFCIGMGFICGFSIATGAAARLVSGYDSYGNICGQKNTKLEAIPNSGMDHTQRKYVFFLDPCNLDLINRKIKSVALCVAACPRQELKTLSDVQKFAEINGSALCSYNLKPSEYTTSPKSSVLCPKLPVPASAPIPFFHRCAPVNISCYAKFAEALITFVSDNSVLHRLISGVMTSKEIILGLCLLSLVLSMILMVIIRYISRVLVWILTILVILGSLGGTGVLWWLYAKQRRSPKETVTPEQLQIAEDNLRALLIYAISATVFTVILFLIMLVMRKRVALTIALFHVAGKVFIHLPLLVFQPFWTFFALVLFWVYWIMTLLFLGTTGSPVQNEQGFVEFKISGPLQYMWWYHVVGLIWISEFILACQQMTVAGAVVTYYFTRDKRNLPFTPILASVNRLIRYHLGTVAKGSFIITLVKIPRMILMYIHSQLKGKENACARCVLKSCICCLWCLEKCLNYLNQNAYTATAINSTNFCTSAKDAFVILVENALRVATINTVGDFMLFLGKVLIVCSTGLAGIMLLNYQQDYTVWVLPLIIVCLFAFLVAHCFLSIYEMVVDVLFLCFAIDTKYNDGSPGREFYMDKVLMEFVENSRKAMKEAGKGGVADSRELKPMASGASSA
On to B4, for which, in data set [4] (setting [12]), the Km is reported as 28.9 (±18.5) μM, the Vmax stood at 6.01e-05 µmol/min/mg and the Vmax/Km came out at 2.08 µL/min/mg.

B5: SLC35F2 (Homo sapiens) (protein)
chain: MEADSPAGPGAPEPLAEGAAAEFSSLLRRIKGKLFTWNILKTIALGQMLSLCICGTAITSQYLAERYKVNTPMLQSFINYCLLFLIYTVMLAFRSGSDNLLVILKRKWWKYILLGLADVEANYVIVRAYQYTTLTSVQLLDCFGIPVLMALSWFILHARYRVIHFIAVAVCLLGVGTMVGADILAGREDNSGSDVLIGDILVLLGASLYAISNVCEEYIVKKLSRQEFLGMVGLFGTIISGIQLLIVEYKDIASIHWDWKIALLFVAFALCMFCLYSFMPLVIKVTSATSVNLGILTADLYSLFVGLFLFGYKFSGLYILSFTVIMVGFILYCSTPTRTAEPAESSVPPVTSIGIDNLGLKLEENLQETHSAVL
B5: in [1], the Km is on record as 161 (±99.5) μM, the Vmax was determined as 0.000415 µmol/min/mg and the Vmax/Km is 2.58 µL/min/mg. Moreover, in data set [4] (setting [13]), the Km is given as 32.6 (±14.9) μM, the Vmax amounted to 8.1e-05 µmol/min/mg and the Vmax/Km is 2.48 µL/min/mg.

B6: SLC35F3 (Homo sapiens) (protein)
chain: MKKHSARVAPLSACNSPVLTLTKVEGEERPRDSPGPAEAQAPAGVEAGGRASRRCWTCSRAQLKKIFWGVAVVLCVCSSWAGSTQLAKLTFRKFDAPFTLTWFATNWNFLFFPLYYVGHVCKSTEKQSVKQRYRECCRFFGDNGLTLKVFFTKAAPFGVLWTLTNYLYLHAIKKINTTDVSVLFCCNKAFVFLLSWIVLRDRFMGVRIVAAILAIAGIVMMTYADGFHSHSVIGIALVVASASMSALYKVLFKLLLGSAKFGEAALFLSILGVFNILFITCIPIILYFTKVEYWSSFDDIPWGNLCGFSVLLLTFNIVLNFGIAVTYPTLMSLGIVLSIPVNAVIDHYTSQIVFNGVRVIAIIIIGLGFLLLLLPEEWDVWLIKLLTRLKVRKKEEPAEGAADLSSGPQSKNRRARPSFAR
For B6, in data set [4] (setting [14]), the Km is on record as 112 (±96.4) μM, the Vmax is 0.000135 µmol/min/mg and the Vmax/Km amounted to 1.21 µL/min/mg.

B7: SLC35F5 (Homo sapiens) (protein)
chain: MVPPRRHRGAGRPGVLSSSPPFRLRSAKFSGIALEDLRRALKTRLQMVCVFVMNRMNSQNSGFTQRRRMALGIVILLLVDVIWVASSELTSYVFTQYNKPFFSTFAKTSMFVLYLLGFIIWKPWRQQCTRGLRGKHAAFFADAEGYFAACTTDTTMNSSLSEPLYVPVKFHDLPSEKPESTNIDTEKTPKKSRVRFSNIMEIRQLPSSHALEAKLSRMSYPVKEQESILKTVGKLTATQVAKISFFFCFVWFLANLSYQEALSDTQVAIVNILSSTSGLFTLILAAVFPSNSGDRFTLSKLLAVILSIGGVVLVNLAGSEKPAGRDTVGSIWSLAGAMLYAVYIVMIKRKVDREDKLDIPMFFGFVGLFNLLLLWPGFFLLHYTGFEDFEFPNKVVLMCIIINGLIGTVLSEFLWLWGCFLTSSLIGTLALSLTIPLSIIADMCMQKVQFSWLFFAGAIPVFFSFFIVTLLCHYNNWDPVMVGIRRIFAFICRKHRIQRVPEDSEQCESLISMHSVSQEDGAS
As to B7, in [4] (setting [15]), the Km is reported as 5.83 (±3.23) μM, the Vmax came to 3.48e-05 µmol/min/mg and the Vmax/Km came out at 5.97 µL/min/mg.

B8: SLC35G3 (Homo sapiens) (protein)
chain: MAGSHPYFNQPDSTHPSPPSAPPSLRWYQRCQPSDATSGLLVALLGGGLPAGFVGPLSRMAYQASNLPSLELLIWRCLFHLPIALLLKLRGDPLLGTPDIRSRAFFCALLNILSIGCAYSAVQVVPAGNAATVRKGSSTVCSAVLTLCLESQGLSGYDWCGLLGCILGLIIIVGPGLWTLQEGTTGVYTALGYVEAFLGGLALSLRLLVYRSLHFPPCLPTVAFLSGLVGLLGSVPGLFVLQAPVLPSDLLSWSCVGAVGILALVSFTCVGYAVTKAHPALVCAVLHSEVVVALILQYYMLHETVAPSDIVAAGVVLGSIAIITAQNLSCERTGRVEE
On to B8, for which the Km in [5] is given as 151 (±60.7) μM; in [6], 143 (±119) μM; in data set [7] it was 57.7 (±44.9) μM; in [8] it was 141 (±50.4) μM; in [1] it was 466 (±117) μM; in data set [9], 48.2 (±23.9) μM. Moreover, the Vmax in data set [5] came out at 0.000551 µmol/min/mg; in data set [6], 0.000291 µmol/min/mg; in data set [7], 0.000265 µmol/min/mg; in data set [8] it was 0.000606 µmol/min/mg; in data set [1], 0.000739 µmol/min/mg; in data set [9], 0.000234 µmol/min/mg. For the same protein, the Vmax/Km in data set [5] came out at 3.64 µL/min/mg; in data set [6] it was 2.04 µL/min/mg; in [7], 4.6 µL/min/mg; in data set [8], 4.31 µL/min/mg; in data set [1] it was 1.59 µL/min/mg; in data set [9], 4.85 µL/min/mg.

B9: SLC35E4 (Homo sapiens) (protein)
chain: MCRCPPEHHDGRMTSAEVGAAAGGAQAAGPPEWPPGSPQALRQPGRARVAMAALVWLLAGASMSSLNKWIFTVHGFGRPLLLSALHMLVAALACHRGARRPMPGGTRCRVLLLSLTFGTSMACGNVGLRAVPLDLAQLVTTTTPLFTLALSALLLGRRHHPLQLAAMGPLCLGAACSLAGEFRTPPTGCGFLLAATCLRGLKSVQQSALLQEERLDAVTLLYATSLPSFCLLAGAALVLEAGVAPPPTAGDSRLWACILLSCLLSVLYNLASFSLLALTSALTVHVLGNLTVVGNLILSRLLFGSRLSALSYVGIALTLSGMFLYHNCEFVASWAARRGLWRRDQPSKGL
On to B9, for which, in data set [4] (setting [16]), the Km was 245 (±331) μM, the Vmax stood at 4.19e-05 µmol/min/mg and the Vmax/Km was determined as 0.17 µL/min/mg.
